Changes are numbered by the printed parent chain. In names and notes the source's numbering stands.
What was measured:
G. max ALS1 protein [1] = assay: Colorimetric ALS kinetic assay (Km, kcat) with pyruvate as substrate; format: biochemical, Glycine max
Protocol: A survey of known ALS (AcetoLactate Synthase) gene variants (Table 2) was performed, and a number of ALS variants were selected for kinetic evaluation based on breadth and strength of insensitivity to ALS-inhibitor herbicides as well as kinetic activity parameters including the ratio of substrate preferences. The selected ALS gene variants (Table 3) were generated by PCR mediated site-directed mutagenesis. Finnzymes PHUSION® DNA polymerase (Cat. No. F-530S) was used for the PCR reactions, following the instructions for recommended temperatures and cycles in the PHUSION® protocol. Some mutagenesis reactions were assisted by the use of IN-FUSION® enzyme (Clontech Cat. No. 639620) to circularize a linear plasmid with the mutation located within the 15 nucleotide overlapping ends, via recombination following the manufacturer's protocol for primer design and reaction conditions. The ALS genes, beginning with encoded amino acids SISK, (S48 to K51 in the G. max ALS1 protein (SEQ ID NO:1) corresponding to the mature protein N-terminus of the chloroplast localized enzyme), were cloned into the PMAL® E. coli expression vector (New England Biolabs) to express ALS as a fusion protein with a Maltose-Binding Protein (MBP) at the N-terminus with a thrombin site for cleavage and a His-6 tag for affinity purification. All in vitro protein characterization described in the examples was carried out with the isolated proteins after cleavage from the His-MBP fusion partner.
Km and Kcat determinations for recombinant ALS variants (with respect to pyruvate as the substrate) were performed using a colorimetric assay. ALS assays were carried out in 96-well microplates with 150 ul reaction containing 25 mM potassium phosphate, 0.2 mg/ml BSA, 15 mM MgCl2, 0.7 mM TPP, 28 uM FAD and 0-100 mM sodium pyruvate. Reactions were initiated by the addition of ALS enzyme to a final amount of 0.8 ug/well. Parameters for Km and Vmax were determined by fitting the velocity versus substrate concentration data to a rectangular hyperbola using GraphPad Prism software. Kcat values were determined from Vmax based on protein concentration in the reactions.

G. max ALS1 protein [2] = assay: Substrate specificity ratio (Rf), pyruvate versus 2-ketobutyrate, LC-MS of reduced products; format: biochemical, Glycine max; conditions: ratio of [pyruvate] to [2-ketobutyrate] giving equal rates of acetolactate and acetohydroxybutyrate formation; 25 mM pyruvate
From the text: The “substrate specificity ratio”, or “Rf”, characterizes the specificity of the ALS enzyme for AHB formation relative to AL formation (Gollop et al. (1989) Biochemistry 28:6310-6317). Rf is the ratio of [pyruvate] to [2-ketobutyrate] that results in equal rates of formation of acetolactate and acetohydroxybutyrate. Rf is a constant at all substrate concentrations. The substrate specificity ratio is ˜114 for the wild type Glycine max ALS1 enzyme (SEQ ID NO:1) compared to ˜3 for the highly resistant allele (HRA) double mutant variant (SEQ ID NO: 10) of the Glycine max ALS1. The soybean HRA sequence is disclosed, for example, in WO2007/024782, herein incorporated by reference.
Substrate preference was determined using the assay described in Example 3; however, the assay was conducted using a constant concentration of pyruvate (25 mM) and varying concentrations of the second substrate, 2-ketobutyrate. Each reaction involving a specific ratio of pyruvate to 2-ketobutyrate, after a set period of time, was quenched by addition of sodium borohydride (7-fold excess) to form the reduced adducts of the products of the two substrates namely; reduced acetolactate for the reaction with pyruvate and reduced aceto hydroxybutyrate for the 2-ketobutyrate reaction. The relative amounts of the two reduced products was determined by first, chromatographic separation using a 4.6×250 mm dC18 column (Atlantis) equilibrated with a 0.1% formic acid solution and subsequent elution using a methanol gradient at 0.7 ml/min, followed by detection using a Thermo FINNIGAN® LTQ® Mass Spectrometer (MS). The products of the two reactions were quantified by integration of the MS signals. The % of the amount of each of the reduced products was then plotted versus the concentration of 2-ketobutyrate. As the 2-ketobutyrate amount increased there was a consequent increase in reduced acetohydroxybutyrate (AHB) and decrease in reduced acetolactate (AL). […] The substrate specificity ratio was ˜114 for the wild type enzyme compared to 3 for the highly resistant allele (HRA) double mutant ALS variant (SEQ ID NO: 10).

ALS = conditions: cited from earlier work

B1: GM-ALS_P178S_D357N: Glycine Max ALS1 with P→S at position 178 and D→N at position 357 (protein)
chain: MAATASRTTRFSSSSSHPTFPKRITRSTLPLSHQTLTKPNHALKIKCSISKPPTAAPFTKEAPTTEPFVSRFASGEPRKGADILVEALERQGVTTVFAYPGGASMEIHQALTRSAAIRNVLPRHEQGGVFAAEGYARSSGLPGVCIATSGPGATNLVSGLADALMDSVPVVAITGQVSRRMIGTDAFQETPIVEVSRSITKHNYLILDVDDIPRVVAEAFFVATSGRPGPVLIDIPKDVQQQLAVPNWDEPVNLPGYLARLPRPPAEAQLEHIVRLIMEAQKPVLYVGGGSLNSSAELRRFVELTGIPVASTLMGLGTFPIGDEYSLQMLGMHGTVYANYAVDNSDLLLAFGVRFDNRVTGKLEAFASRAKIVHIDIDSAEIGKNKQAHVSVCADLKLALKGINMILEEKGVEGKFDLGGWREEINVQKHKFPLGYKTFQDAISPQHAIEVLDELTNGDAIVSTGVGQHQMWAAQFYKYKRPRQWLTSGGLGAMGFGLPAAIGAAVANPGAVVVDIDGDGSFIMNVQELATIRVENLPVKILLLNNQHLGMVVQWEDRFYKSNRAHTYLGDPSSESEIFPNMLKFADACGIPAARVTKKEELRAAIQRMLDTPGPYLLDVIVPHQEHVLPMIPSNGSFKDVITEGDGRTRY
modifications: ALS1 variant P178S D357N
Km (G. max ALS1 protein [1]): 4 mM | kcat (G. max ALS1 protein [1]): 1.82 s⁻¹ | Substrate specificity ratio (Rf) (G. max ALS1 protein [2]): 49.0

B2: GM-ALS_A186D: Glycine Max ALS1 variant with a A→D mutation at position 186 (protein)
chain: B1 chain with S178P, A186D, N357D
modifications: ALS1 variant A186D
Km (G. max ALS1 protein [1]): 35 mM | kcat (G. max ALS1 protein [1]): 0.15 s⁻¹ | Substrate specificity ratio (Rf) (G. max ALS1 protein [2]): 21.7

B3: GM-ALS_A186V: Glycine Max ALS1 variant with a A→V mutation at position 186 (protein)
chain: B1 chain with S178P, A186V, N357D
modifications: ALS1 variant A186V
Km (G. max ALS1 protein [1]): 14 mM | kcat (G. max ALS1 protein [1]): 0.467 s⁻¹ | Substrate specificity ratio (Rf) (G. max ALS1 protein [2]): 40.3

B4: GM-ALS_P178S_F559D: Glycine Max ALS1 with P→S at position 178 and F→D at position 559 (protein)
chain: B1 chain with N357D, F559D
modifications: ALS1 variant P178S F559D
Km (G. max ALS1 protein [1]): 40 mM | kcat (G. max ALS1 protein [1]): 0.833 s⁻¹ | Substrate specificity ratio (Rf) (G. max ALS1 protein [2]): 89.0

B5: GM-ALS_K237Q: Glycine Max ALS1 variant with a K→Q mutation at position 237 (protein)
chain: B1 chain with S178P, K237Q, N357D
modifications: ALS1 variant K237Q
Km (G. max ALS1 protein [1]): 20 mM | kcat (G. max ALS1 protein [1]): 1.35 s⁻¹ | Substrate specificity ratio (Rf) (G. max ALS1 protein [2]): 100.0

B6: GM-ALS_D357E: Glycine Max ALS1 variant with a D→E mutation at position 357 (protein)
chain: B1 chain with S178P, N357E
modifications: ALS1 variant D357E
Km (G. max ALS1 protein [1]): 3 mM | kcat (G. max ALS1 protein [1]): 2.8 s⁻¹ | Substrate specificity ratio (Rf) (G. max ALS1 protein [2]): 67.6

B7: GM-ALS_F559L: Glycine Max ALS1 variant with a F→L mutation at position 559 (protein)
chain: B1 chain with S178P, N357D, F559L
modifications: F559L
Km (G. max ALS1 protein [1]): 6 mM | kcat (G. max ALS1 protein [1]): 1.78 s⁻¹ | Substrate specificity ratio (Rf) (G. max ALS1 protein [2]): 62.5

B8: GM-ALS_D357N: Glycine Max ALS1 variant with a D→N mutation at position 357 (protein)
chain: B1 chain with S178P
modifications: ALS1 variant D357N
Km (G. max ALS1 protein [1]): 6 mM | kcat (G. max ALS1 protein [1]): 2.5 s⁻¹ | Substrate specificity ratio (Rf) (G. max ALS1 protein [2]): 72.0

B9: GM-ALS_F559D: Glycine Max ALS1 variant with a F→D mutation at position 559 (protein)
chain: B1 chain with S178P, N357D, F559D
modifications: ALS1 variant F559D
Km (G. max ALS1 protein [1]): 20 mM | kcat (G. max ALS1 protein [1]): 0.417 s⁻¹ | Substrate specificity ratio (Rf) (G. max ALS1 protein [2]): 96.0

B10: GM-ALS_W555L: Glycine Max ALS1 variant with a W→L mutation at position 555 (protein)
chain: B1 chain with S178P, N357D, W555L
modifications: ALS1 variant W555L
Km (G. max ALS1 protein [1]): 1.8 mM | kcat (G. max ALS1 protein [1]): 1.08 s⁻¹ | Substrate specificity ratio (Rf) (G. max ALS1 protein [2]): 2.6

B11: GM-ALS_K237F: Glycine Max ALS1 variant with a K→F mutation at position 237 (protein)
chain: B1 chain with S178P, K237F, N357D
modifications: ALS1 variant K237F
Km (G. max ALS1 protein [1]): 27 mM | kcat (G. max ALS1 protein [1]): 2.17 s⁻¹ | Substrate specificity ratio (Rf) (G. max ALS1 protein [2]): 100.0

B12: P197S: Chemical mutagenesis of A. thaliana plants; position P197, 178 (protein, UniProt P17597 56-670, looked up, variant P197S)
Acetolactate synthase, …: SSSPSSISAVLNTTTNVTTTPSPTKPTKPETFISRFAPDQPRKGADILVEALERQGVETVFAYPGGASMEIHQALTRSSSIRNVLPRHEQGGVFAAEGYARSSGKPGICIATSGPGATNLVSGLADALLDSVPLVAITGQVSRRMIGTDAFQETPIVEVTRSITKHNYLVMDVEDIPRIIEEAFFLATSGRPGPVLVDVPKDIQQQLAIPNWEQAMRLPGYMSRMPKPPEDSHLEQIVRLISESKKPVLYVGGGCLNSSDELGRFVELTGIPVASTLMGLGSYPCDDELSLHMLGMHGTVYANYAVEHSDLLLAFGVRFDDRVTGKLEAFASRAKIVHIDIDSAEIGKNKTPHVSVCGDVKLALQGMNKVLENRAEELKLDFGVWRNELNVQKQKFPLSFKTFGEAIPPQYAIKVLDELTDGKAIISTGVGQHQMWAAQFYNYKKPRQWLSSGGLGAMGFGLPAAIGASVANPDAIVVDIDGDGSFIMNVQELATIRVENLPVKVLLLNNQHLGMVMQWEDRFYKANRAHTFLGDPAQEDEIFPNMLLFAAACGIPAARVTKKADLREAIQTMLDTPGPYLLDVICPHQEHVLPMIPSGGTFNDVITEGDGRIKY
Resistance pattern, I50 fold increase: IP (ALS; IP (abbreviation not defined)): IP, 2 fold | Resistance pattern, I50 fold increase: CS (ALS; chlorsulfuron): CS, 1000 fold

B13: R199E: Site-directed mutation in A. thaliana ALS; position R199, 180 (protein, UniProt P17597 56-670, looked up, variant R199E)
Acetolactate synthase, …: B12 Acetolactate synthase, … with S142P, R144E
Resistance pattern, I50 fold increase: IEt (ALS; imazethapyr): IEt, 50 fold | Resistance pattern, I50 fold increase: SM (ALS; sulfometuron methyl): SM, 2 fold

Reference: US10294487B2, “Methods and compositions involving ALS variants with native substrate preference” (E I DU PONT DE NEMOURS AND COMPANY, priority 2012, dated 2019)
